Columns and labels:
Test in all cases: cell-based or functional assay
[1] = target: fibronectin
[2] = target: collagen type IV
[3] = target: bovine serum albumin (bovine) (UniProt P02769)
UniProt P02769, sequence (P02769 25-607 limits assumed): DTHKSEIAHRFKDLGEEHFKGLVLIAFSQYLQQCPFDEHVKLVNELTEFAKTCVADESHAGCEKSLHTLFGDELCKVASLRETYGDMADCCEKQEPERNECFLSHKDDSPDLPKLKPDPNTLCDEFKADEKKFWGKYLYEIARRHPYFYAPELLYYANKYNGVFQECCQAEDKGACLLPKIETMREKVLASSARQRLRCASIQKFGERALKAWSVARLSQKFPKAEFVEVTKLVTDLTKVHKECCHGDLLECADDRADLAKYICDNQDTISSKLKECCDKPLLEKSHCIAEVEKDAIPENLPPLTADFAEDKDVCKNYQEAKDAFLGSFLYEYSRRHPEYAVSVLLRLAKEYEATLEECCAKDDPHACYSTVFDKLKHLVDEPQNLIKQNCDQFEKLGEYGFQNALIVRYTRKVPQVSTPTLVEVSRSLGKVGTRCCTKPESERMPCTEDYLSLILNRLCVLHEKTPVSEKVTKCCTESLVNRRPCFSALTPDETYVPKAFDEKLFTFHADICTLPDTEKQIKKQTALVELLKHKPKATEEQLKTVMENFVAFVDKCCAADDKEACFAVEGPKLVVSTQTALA

B1: saratin (protein)
chain: EEREDCWTFYANRKYTDFDKSFKKSSDLDECKKTCFKTEYCYIVFEDTVNKECYYNVVDGEELDQEKFVVDENFTENYLTDCEGKDAGNAAGTGDESDEVDED
Saratin IC50, MCP-1-induced human monocyte migration through filters coated with Fibronectin, coating conc. 1.0 (Boyden chamber) [1]: 19.4 nM | Saratin IC50, MIP-1alpha-induced human T lymphocyte migration through filters coated with Fibronectin, coating conc. 1.0 (Boyden chamber) [1]: 3.69 nM | Saratin IC50, MCP-1-induced human monocyte migration through filters coated with Collagen IV, coating conc. 0.01 (Boyden chamber) [2]: 0.172 nM | Saratin IC50, MCP-1-induced human monocyte migration through filters coated with Collagen IV, coating conc. 1.0 (Boyden chamber) [2]: 0.0623 nM | Saratin IC50, MIP-1alpha-induced human T lymphocyte migration through filters coated with Collagen IV, coating conc. 0.01 (Boyden chamber) [2]: 6.86 nM | Saratin IC50, MIP-1alpha-induced human T lymphocyte migration through filters coated with Collagen IV, coating conc. 1.0 (Boyden chamber) [2]: 0.0079 nM | IC50 of saratin inhibition of MCP-1-induced human monocyte migration through filters coated with 1 mg/mL BSA (Boyden chamber) [3]: 37 nM | Saratin IC50, MCP-1-induced human monocyte migration through filters coated with BSA, coating conc. 1.0 as the table prints it (the text gives 1.1 nM for 0.01 mg/mL BSA) (Boyden chamber) [3]: 1.1 nM | Saratin IC50, MIP-1alpha-induced human T lymphocyte migration through filters coated with BSA, coating conc. 1.0 (Boyden chamber) [3]: 185 nM

From US20110034396A1
